Assay results taken from patent US20080317723A1, “LYMPHATIC ENDOTHELIAL CELLS MATERIALS AND METHODS” (VEGENICS LIMITED, priority 2001, published 2008).

T1: VEGFR-3/EpoR (Homo sapiens, UniProt P35916)
T1 construct: a chimeric receptor containing the extracellular domain of human VEGFR-1, VEGFR-2 or VEGFR-3 fused with the transmembrane and cytoplasmic domains; expressed in transfected cells; host or cells: murine Ba/F3 pre-B cells, stably transfected
T1 sequence (P35916 25-775 limits assumed): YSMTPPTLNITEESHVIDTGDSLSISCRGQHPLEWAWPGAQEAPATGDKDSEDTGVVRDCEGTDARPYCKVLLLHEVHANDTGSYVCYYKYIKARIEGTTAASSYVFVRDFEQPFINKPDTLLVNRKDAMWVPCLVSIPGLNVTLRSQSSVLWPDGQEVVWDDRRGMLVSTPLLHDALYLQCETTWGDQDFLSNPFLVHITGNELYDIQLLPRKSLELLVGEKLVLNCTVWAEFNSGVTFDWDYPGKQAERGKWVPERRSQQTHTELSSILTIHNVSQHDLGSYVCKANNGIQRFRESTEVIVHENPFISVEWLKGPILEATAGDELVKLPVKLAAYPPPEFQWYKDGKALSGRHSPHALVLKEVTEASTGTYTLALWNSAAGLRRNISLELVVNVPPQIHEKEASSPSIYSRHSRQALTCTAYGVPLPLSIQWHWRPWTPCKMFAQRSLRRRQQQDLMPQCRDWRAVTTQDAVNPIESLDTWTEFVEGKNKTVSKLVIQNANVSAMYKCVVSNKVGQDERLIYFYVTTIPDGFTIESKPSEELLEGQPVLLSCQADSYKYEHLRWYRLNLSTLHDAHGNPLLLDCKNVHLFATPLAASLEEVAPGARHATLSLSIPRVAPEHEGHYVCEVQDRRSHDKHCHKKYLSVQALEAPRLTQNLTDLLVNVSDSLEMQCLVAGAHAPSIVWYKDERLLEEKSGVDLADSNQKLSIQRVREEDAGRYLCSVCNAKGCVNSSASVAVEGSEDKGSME

B1: VEGF-C156S: VEGFR-3 specific mutant form of VEGF-C, cysteine 156 changed into serine; recombinant human (Thr103 to Ile225) (protein, UniProt P49767 103-225, looked up, variant C156S)
chain: TEETIKFAAAHYNTEILKSIDNEWRKTQCMPREVCIDVGKEFGVATNTFFKPPSVSVYRCGGCCNSEGLQCMNTSTSYLSKTLFEITVPLSQGPKPVTISFANHTSCRCMSKLDVYRQVHSII

Columns and labels:
[1] = test system: VEGFR-3 expressing lymphatic endothelial cells; assay: Culture and proliferation (PCNA) of isolated VEGFR-3 positive lymphatic endothelial cells; assay type: cell-based, human; details: complete medium with 5% serum supplemented with VEGF 10 ng/ml or VEGF-C 100 ng/ml
Protocol: In order to compare the effects of the VEGFs on the survival of lymphatic versus blood vascular endothelial cells, specific antibodies and magnetic microbeads were used to isolate and to culture the VEGFR-3 positive and negative cells. Briefly, in this protocol, three separate sets of VEGFR-3 expressing lymphatic endothelial cells were cultured: a first set was cultured in complete medium containing 5% serum, the second set was cultured in complete medium containing 5% serum and supplemented with VEGF (10 ng/ml,) and the third set was cultured in complete medium containing 5% serum supplemented with VEGF-C (100 ng/ml). The VEGFR-3 positive cells were grown for five days after sorting in serum or supplemented with VEGFC and then stained for podoplanin and proliferating cell nuclear antigen (PCNA). The nuclei were stained with the Hoechst fluorochrome. If supplemented with VEGF-C or VEGF, the cells were stained for PCNA. Immunofluorescence double-staining of non-sorted cells or VEGFR-3 negative and VEGFR-3 positive cell populations with antibodies against podoplanin or VEGFR-3 also was performed.

[2] = biological target: T1, VEGFR-3/EpoR; assay: Ba/F3 bioassay, viability (MTT) of VEGFR-3/EpoR cells; assay type: cell-based
Protocol: FIG. 1A-FIG. 1C. Analysis of the receptor-specificities of different VEGFs using the Ba/F3 bioassay. Measurement of the viability of Ba/F3 cells expressing the chimeric receptors VEGFR-1/EpoR (FIG. 1A), VEGFR-2/EpoR (FIG. 1B) or VEGFR-3/EpoR (FIG. 1C) in the presence of different VEGFs at indicated concentrations. Cell viability was determined using the MTT assay. Data represent the mean values from triplicate assays (mean±s.d.). FIG. 1D-FIG. 1G. Biosensor analysis of the interaction of VEGF-C (FIG. 1D, FIG. 1E) and VEGF-C156S (FIG. 1F, FIG. 1G) with VEGFR-3 (FIG. 1D, FIG. 1F) and VEGFR-2 (FIG. 1E, FIG. 1G). Chimeric receptor proteins were immobilized onto a carboxymethylated dextran surface. Growth factors were injected over the surface at a flow rate of 20 μl/min at the indicated concentrations. The sensorgrams shown have been subtracted with the corresponding signal obtained when the same sample was passed over a blank control channel.
Bioassay for VEGFR stimulation. […]
VEGF is an endothelial cell mitogen which has been also shown to protect endothelial cells from starvation and TNF-a induced apoptosis via activation of VEGFR-2 (Gerber et al, J. Biol. Chem., 273:30336-30343, 1998; Spyridopoulos et al., J. Mol. Cell. Cardiol., 29:1321-1330, 1997). […] The specificities of the growth factors used were determined using a cell survival bioassay. […]

Molecule	proliferation of isolated podoplanin positive cells [1]	concentration which gave maximal viability in VEGFR-3/EpoR cell survival assays ([2]; Ba/F3 VEGFR-3/EpoR cells)	survival of VEGFR-3/EpoR expressing cells ([2]; Ba/F3 cells, FIG. 1C)
VEGF	most of the podoplanin positive cells proliferated readily	–	–
B1	–	500 ng/mL	VEGFR-3/EpoR expressing cells survived
